Laboratory results from IntAct's records for PubMed 21408167.

B1: Death-associated protein kinase 2 (Homo sapiens), Q9UIK4-2 (parent)
chain: MFQASMRSPNMEPFKQQKVEDFYDIGEELGSGQFAIVKKCREKSTGLEYAAKFIKKRQSRASRRGVSREEIEREVSILRQVLHHNVITLHDVYENRTDVVLILELVSGGELFDFLAQKESLSEEEATSFIKQILDGVNYLHTKKIAHFDLKPENIMLLDKNIPIPHIKLIDFGLAHEIEDGVEFKNIFGTPEFVAPEIVNYEPLGLEADMWSIGVITYILLSGASPFLGDTKQETLANITAVSYDFDEEFFSQTSELAKDFIRKLLVKETRKRLTIQEALRHPWITSKGEGRAPEQRKTEPTQLKTKHLREYTLKCHSSMPPNNSYVNFERFACVVEDVARVDLGCRALVEAHDTIQDDVEALVSIFNEKEAWYREENESARHDLSQLRYEFRKVESLKKLLREDIQATGCSLGSMARKLDHLQAQFEILRQELSADLQWIQELVGSFQLESGSSEGLGSTFYQDTSESLSELLSRSCTEEFLAGWKL

Variants of: B1
Settings: with atf4_human ATF4, P18848
Sequence of atf4_human ATF4, P18848 (P18848 whole entry): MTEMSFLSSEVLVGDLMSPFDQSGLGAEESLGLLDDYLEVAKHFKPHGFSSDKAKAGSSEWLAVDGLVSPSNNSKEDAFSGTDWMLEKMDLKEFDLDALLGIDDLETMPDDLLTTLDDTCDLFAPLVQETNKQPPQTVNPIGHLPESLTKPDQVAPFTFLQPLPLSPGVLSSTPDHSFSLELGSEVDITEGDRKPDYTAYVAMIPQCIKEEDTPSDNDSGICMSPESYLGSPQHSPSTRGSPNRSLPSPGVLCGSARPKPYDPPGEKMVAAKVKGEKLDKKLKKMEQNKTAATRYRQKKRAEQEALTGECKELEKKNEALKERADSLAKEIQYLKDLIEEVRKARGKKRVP

Variant	effect of a mutation on the interaction
L434A;I441A;F448A	decreasing interaction
